According to paper PMC4477663 (Nucleic Acids Research, 2015):

Columns and labels:
Experiment in all cases: pull-down
[1] = target: recombinant APE1 C99S (UniProt P27695 1-318, C99S)
[2] = target: recombinant APE1 C65S (UniProt P27695 1-318, C65S)
[3] = target: recombinant APE1 C65S+C99S (UniProt P27695 1-318, C65S | C99S)

Measured: binding result

recombinant APE1 C99S, sequence (P27695 whole entry C99S): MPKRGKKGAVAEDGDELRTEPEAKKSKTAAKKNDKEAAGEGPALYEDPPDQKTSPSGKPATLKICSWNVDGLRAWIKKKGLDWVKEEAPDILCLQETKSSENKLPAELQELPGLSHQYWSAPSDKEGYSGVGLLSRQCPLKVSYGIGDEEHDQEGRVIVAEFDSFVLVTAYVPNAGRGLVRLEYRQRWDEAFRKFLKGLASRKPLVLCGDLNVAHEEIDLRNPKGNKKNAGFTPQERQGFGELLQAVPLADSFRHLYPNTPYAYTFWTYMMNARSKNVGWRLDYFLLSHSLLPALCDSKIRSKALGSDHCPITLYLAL
recombinant APE1 C65S+C99S, sequence (P27695 whole entry C65S/C99S): as the sequence (P27695 whole entry C99S) above, with C65S counted along it
recombinant APE1 C65S, sequence (P27695 whole entry C65S): as the sequence (P27695 whole entry C99S) above, with C65S, S99C counted along it

B1: recombinant GST-Mia40 wild type (natural protein, human, UniProt Q8N4Q1 1-142, looked up)
chain: MSYCRQEGKDRIIFVTKEDHETPSSAELVADDPNDPYEEHGLILPNGNINWNCPCLGGMASGPCGEQFKSAFSCFHYSTEEIKGSDCVDQFRAMQECMQKYPDLYPQEDEDEEEEREKKPAEQAEETAPIEATATKEEEGSS
binds: [1] | [2] | [3]
